From article PMC3074572 (2011) come the findings set out here.

The Kd is the concentration at which binding is half-saturated.

This assay concerns the target TGFβ1 (Homo sapiens, UniProt P01137).

Sequence of TGFβ1 (P01137 279-390): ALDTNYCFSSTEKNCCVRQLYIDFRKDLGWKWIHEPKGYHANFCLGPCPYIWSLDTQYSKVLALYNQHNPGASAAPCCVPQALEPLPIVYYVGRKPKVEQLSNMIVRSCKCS

On to KRIWFIPRSSWY [KRIWFIPRSSWY peptide], for which the Kd stood at 10.4 nM.
